The target in this experiment is HSV1(F) viral capsids treated with 0.5 M KCl (HSV1 strain F) (UniProt P10219). Description: immunoelectron microscopy (immunogold labelling of capsids, negative staining); capsids incubated with […] pig brain cytosol, adsorbed on grids, labelled with antibodies against MAP subunits and protein-A gold; gold per mono-disperse capsid counted, labelling of capsids in buffer subtracted as background.
UniProt P10219, sequence (P10219 whole entry, looked up): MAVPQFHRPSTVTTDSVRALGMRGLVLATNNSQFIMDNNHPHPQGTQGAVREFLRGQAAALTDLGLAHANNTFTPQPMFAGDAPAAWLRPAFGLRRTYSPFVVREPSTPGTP

As to kinesin-1 of pig brain (complex), the gold particles per capsid above background was 0.5 gold/capsid; the percent of capsids with more than one complex, background taken into account amounted to 10%; the percent of capsids with two labels stood at 20%.

In the case of “cytoplasmic dynein of pig brain cytosol (complex)”, the gold particles per capsid above background stood at 0.75 gold/capsid; the percent of capsids with more than one complex, background taken into account came out at 20%; the percent of capsids with two labels stood at 40%.

The substance “kinesin-2 of pig brain cytosol (complex)” yielded a gold particles per capsid above background of 0.5 gold/capsid and a percent of capsids with two labels of 8%.

For the origin of these results see article PMC2900298.
